{
  "source": "paper PMC9092467",
  "origin": "cited, not measured here",
  "key": {"His83": {"target": "His83 (UniProt position 83, FNEPAHTLYGQ)", "assay": "NMR"}, "His32": {"target": "His32 (UniProt position 32, FGDVNHTNGNV)", "assay": "NMR"}, "[1]": {"details": "apoprotein (no haem or haem analogue bound)"}, "[2]": {"details": "holoprotein with gallium protoporphyrin IX, Ga(PPIX), bound"}},
  "data": [
    {"substance": "Haem acquisition system protein A (hemophore HasA) (Serratia marcescens)", "values": [
      {"measurement": "pKa", "setting": "His83; [1]", "value": 5.6},
      {"measurement": "pKa", "setting": "His83; [2]", "value": 9.7},
      {"measurement": "pKa", "setting": "His32; [1]", "value": 7.3},
      {"measurement": "pKa", "setting": "His32; [2]", "value": "<4.8"}
    ]}
  ]
}
